# T1: Flag-Star-PAP (full length) (human, UniProt Q9H6E5 1-874)
# T1 construct: Expressed in HEK 293 cells and purified on anti-FLAG M2 resin together with its associated complex; also called Flag tagged Star-PAP; full-length Star-PAP; not shown: FLAG tag
# T1 sequence: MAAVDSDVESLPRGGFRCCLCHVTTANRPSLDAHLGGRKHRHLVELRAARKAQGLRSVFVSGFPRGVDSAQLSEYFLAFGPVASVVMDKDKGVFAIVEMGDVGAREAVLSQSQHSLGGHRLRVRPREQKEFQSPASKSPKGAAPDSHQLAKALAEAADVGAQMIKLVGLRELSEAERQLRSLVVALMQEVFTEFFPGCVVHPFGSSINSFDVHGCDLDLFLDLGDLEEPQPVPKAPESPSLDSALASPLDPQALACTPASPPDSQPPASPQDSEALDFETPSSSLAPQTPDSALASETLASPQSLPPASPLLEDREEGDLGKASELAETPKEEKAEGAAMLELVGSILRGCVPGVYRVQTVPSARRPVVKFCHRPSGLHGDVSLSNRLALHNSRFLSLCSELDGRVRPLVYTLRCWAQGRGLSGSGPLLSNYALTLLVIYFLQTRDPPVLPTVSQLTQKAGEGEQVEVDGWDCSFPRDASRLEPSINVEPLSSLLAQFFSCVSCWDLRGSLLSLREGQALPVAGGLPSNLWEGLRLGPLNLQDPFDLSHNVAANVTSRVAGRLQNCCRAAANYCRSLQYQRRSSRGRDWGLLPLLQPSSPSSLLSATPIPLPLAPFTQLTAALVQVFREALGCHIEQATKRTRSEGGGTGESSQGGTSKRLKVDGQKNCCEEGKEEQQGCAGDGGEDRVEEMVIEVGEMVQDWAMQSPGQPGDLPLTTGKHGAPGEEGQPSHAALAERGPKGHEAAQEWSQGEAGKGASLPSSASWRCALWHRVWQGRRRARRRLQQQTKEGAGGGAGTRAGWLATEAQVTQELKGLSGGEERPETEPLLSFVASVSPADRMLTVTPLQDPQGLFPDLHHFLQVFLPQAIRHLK
# T2: endogenous Star-PAP (human, UniProt Q9H6E5 1-874)
# T2 sequence: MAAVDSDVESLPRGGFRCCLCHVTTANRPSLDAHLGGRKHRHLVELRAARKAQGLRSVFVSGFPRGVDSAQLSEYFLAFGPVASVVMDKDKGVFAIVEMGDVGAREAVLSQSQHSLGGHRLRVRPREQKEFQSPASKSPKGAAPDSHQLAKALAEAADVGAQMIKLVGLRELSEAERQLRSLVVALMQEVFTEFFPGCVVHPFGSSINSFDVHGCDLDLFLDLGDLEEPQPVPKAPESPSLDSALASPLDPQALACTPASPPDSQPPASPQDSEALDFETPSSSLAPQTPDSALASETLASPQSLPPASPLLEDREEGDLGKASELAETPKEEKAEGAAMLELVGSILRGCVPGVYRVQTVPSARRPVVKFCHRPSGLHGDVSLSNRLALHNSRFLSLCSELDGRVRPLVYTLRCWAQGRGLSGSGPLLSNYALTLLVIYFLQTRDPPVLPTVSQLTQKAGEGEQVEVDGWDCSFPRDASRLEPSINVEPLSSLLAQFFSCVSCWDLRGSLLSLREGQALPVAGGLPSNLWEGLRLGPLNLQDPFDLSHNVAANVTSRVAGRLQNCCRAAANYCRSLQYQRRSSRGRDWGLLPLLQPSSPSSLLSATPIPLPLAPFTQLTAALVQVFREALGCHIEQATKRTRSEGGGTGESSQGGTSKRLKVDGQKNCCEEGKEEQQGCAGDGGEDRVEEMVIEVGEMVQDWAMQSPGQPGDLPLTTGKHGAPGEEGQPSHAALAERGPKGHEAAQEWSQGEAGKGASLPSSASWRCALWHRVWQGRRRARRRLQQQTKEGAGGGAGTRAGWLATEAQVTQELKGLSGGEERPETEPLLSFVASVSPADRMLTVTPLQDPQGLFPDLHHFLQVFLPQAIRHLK
# Tests used:
# [1] = target: T1, Flag-Star-PAP (full length); assay: FLAG affinity purification from HEK 293 cells, western blot
# Description: (§1) Affinity purification of Flag-Star-PAP and Flag-PAPα and their associated complex of proteins in parallel allowed a comparison of the complexes formed by Star-PAP and PAPα in more detail. Flag tagged Star-PAP and PAPα were purified from HEK 293 cells stably expressing Flag-Star-PAP or Flag-PAPα (following manufacturer's instructions; Sigma-Aldrich) and the presence of endogenous symplekin, CPSF¹⁰⁰, CPSF⁷³, CstF⁶⁴, RNA Pol II, Sm protein (Y12) and PIPKIα was assessed by western blotting. Like Flag-PAPα, Flag-Star-PAP associates with symplekin, CPSF¹⁰⁰ and CPSF⁷³, further confirmation that Star-PAP may function in an mRNA polyadenylation complex (FIG. 7). Also detected with both PAPs was a faster migrating form of RNA Pol II and Sm protein (Y-12), a component of the spliceosome, which is consistent with reports that the machinery for splicing and polyadenylation are coupled.
# [2] = target: T3, Flag-PAPα (canonical poly(A) polymerase) (Homo sapiens (Human), UniProt P51003 1-745, limits assumed); assay: as above
# T3 construct: not shown: FLAG tag
# Description: as §1
# endogenous Star-PAP = target: T2, endogenous Star-PAP; assay: co-immunoprecipitation with antibodies against full-length Star-PAP, western blot
# [3] = target: T3, Flag-PAPα (canonical poly(A) polymerase); assay: FLAG affinity purification from HEK 293 cells, immunoblot with a CKIα specific antibody
# Description: (A) FLAG purified Star-PAP and PAPα complexes were separated by SDS-PAGE, transferred to nitrocellulose and probed with anti-FLAG and -CKIα antibodies. (B) Endogeneous Star-PAP was immunoprecipitated from HEK 293 cells. The resulting precipitates were immunoblotted with Star-PAP and CKIα specific antibodies. A non-specific IgG immunoprecipitation was used as a control. (C) Purified FLAG-Star-PAP complex was incubated with 0, 0.1, 1.0, or 100 μM IC261 (IC₅₀ 11 μM). (D) Purified FLAG-Star-PAP complex was incubated with […] (IC₅₀˜6.0 μM) prior to initiation of the kinase reaction by ATP. Arrow indicates Star-PAP protein.
# Casein Kinase Iα (CKIα), is a protein kinase found in nuclear speckles; moreover, CKIα activity is inhibited by PI4,5P₂. […] FLAG proteins were expressed and purified as follows. Human Star-PAP and rat CKIα cDNAs were cloned in to the pFLAG-1 mammalian expression vector (Sigma). For each FLAG purification, four 10 cm dishes each containing ˜5×10^6 HEK 293 cells were transfected with 10 μg DNA and allowed to express for 48 hours. FLAG purifications were performed according to the manufacturer's directions.
# T3 sequence (P51003 whole entry): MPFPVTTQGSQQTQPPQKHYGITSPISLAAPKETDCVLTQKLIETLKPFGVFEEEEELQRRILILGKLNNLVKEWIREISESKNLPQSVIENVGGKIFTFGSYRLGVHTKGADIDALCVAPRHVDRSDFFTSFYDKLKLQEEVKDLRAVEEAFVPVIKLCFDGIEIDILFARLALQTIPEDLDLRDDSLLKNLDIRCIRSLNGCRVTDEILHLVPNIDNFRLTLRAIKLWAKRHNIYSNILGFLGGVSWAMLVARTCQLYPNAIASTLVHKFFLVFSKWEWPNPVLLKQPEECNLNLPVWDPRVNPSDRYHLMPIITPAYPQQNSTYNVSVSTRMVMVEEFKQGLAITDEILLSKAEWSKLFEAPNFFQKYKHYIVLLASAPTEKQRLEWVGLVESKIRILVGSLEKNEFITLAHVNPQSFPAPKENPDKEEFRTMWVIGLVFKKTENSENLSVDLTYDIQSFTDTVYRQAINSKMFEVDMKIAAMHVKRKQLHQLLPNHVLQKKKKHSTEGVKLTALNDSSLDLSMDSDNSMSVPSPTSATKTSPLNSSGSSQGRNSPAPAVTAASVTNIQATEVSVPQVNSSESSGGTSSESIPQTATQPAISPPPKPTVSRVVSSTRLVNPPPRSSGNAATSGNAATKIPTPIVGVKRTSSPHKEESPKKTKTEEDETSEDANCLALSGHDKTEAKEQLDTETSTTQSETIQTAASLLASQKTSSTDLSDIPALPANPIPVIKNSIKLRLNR
binding result [1],binding result [2],binding result (endogenous Star-PAP),binding result [3],Binder
binds,no binding,binds,–,"PIPKIα (endogenous) (enzyme, human, UniProt Q99755 1-562, looked up, Detected by western blot in immunoprecipitates and FLAG-purified complexes; also called type I phosphatidylinositol phosphate kinase alpha; PIP kinase) MASASSGPSSSVGFSSFDPAVPSCTLSSAASGIKRPMASEVLEARQDSYISLVPYASGMPIKKIGHRSVDSSGETTYKKTTSSALKGAIQLGITHTVGSLSTKPERDVLMQDFYVVESIFFPSEGSNLTPAHHYNDFRFKTYAPVAFRYFRELFGIRPDDYLYSLCSEPLIELCSSGASGSLFYVSSDDEFIIKTVQHKEAEFLQKLLPGYYMNLNQNPRTLLPKFYGLYCVQAGGKNIRIVVMNNLLPRSVKMHIKYDLKGSTYKRRASQKEREKPLPTFKDLDFLQDIPDGLFLDADMYNALCKTLQRDCLVLQSFKIMDYSLLMSIHNIDHAQREPLSSETQYSVDTRRPAPQKALYSTAMESIQGEARRGGTMETDDHMGGIPARNSKGERLLLYIGIIDILQSYRFVKKLEHSWKALVHDGDTVSVHRPGFYAERFQRFMCNTVFKKIPLKPSPSKKFRSGSSFSRRAGSSGNSCITYQPSVSGEHKAQVTTKAEVEPGVHLGRPDVLPQTPPLEEISEGSPIPDPSFSPLVGETLQMLTTSTTLEKLEVAESEFTH"
–,–,–,no binding,"Casein Kinase Iα (CKIα), endogenous (enzyme, human, UniProt P48729 2-337, looked up, Detected with a CKIα specific antibody; also called CIKIα) ASSSGSKAEFIVGGKYKLVRKIGSGSFGDIYLAINITNGEEVAVKLESQKARHPQLLYESKLYKILQGGVGIPHIRWYGQEKDYNVLVMDLLGPSLEDLFNFCSRRFTMKTVLMLADQMISRIEYVHTKNFIHRDIKPDNFLMGIGRHCNKLFLIDFGLAKKYRDNRTRQHIPYREDKNLTGTARYASINAHLGIEQSRRDDMESLGYVLMYFNRTSLPWQGLKAATKKQKYEKISEKKMSTPVEVLCKGFPAEFAMYLNYCRGLRFEEAPDYMYLRQLFRILFRTLNHQYDYTFDWTMLKQKAAQQAASSSGQGQQAQTPTGKQTDKTKSNMKGF"

# From patent US20090263375A1 (WISCONSIN ALUMNI RESEARCH FOUNDATION, published 2009)
